Measurements reported in publication PMC4175270.

How the values were obtained:
[1] = target: His6-MobC1-129 (plasmid RA3 (IncU), isolated from Aeromonas hydrophila); assay: cross-linking; His-tagged MobC derivatives (0.1 mg ml^-1) with 0.001%, 0.005% and 0.01% glutaraldehyde; 20% SDS-PAGE, Western blot with anti-His tag antibodies
[2] = target: His6-MobC1-129 (plasmid RA3 (IncU), isolated from Aeromonas hydrophila); assay: SEC-MALS; gel filtration on Superdex 200 10/300 GL with UV, MALS and refractometer in line; 10 mM Tris pH 8.0, 150 mM NaCl; 0.5 ml of His6-MobC at 0.24 mg ml^-1 or His6-MobC1-129 at 0.04 mg ml^-1; no higher oligomers of MobC detected
[3] = target: His6-MobC (WT MobC of plasmid RA3) (plasmid RA3 (IncU), isolated from Aeromonas hydrophila); assay: as above

Substance | stoichiometry N [1] | stoichiometry N [2] | stoichiometry N [3]
His6-MobC1-129 (domain or fragment) | 2 | 2 | –
His6-MobC (WT MobC of plasmid RA3) (natural protein) | – | – | 2
